In paper PMC12343972 (Nature Communications, 2025):
Substitutions are numbered along the chain they refer to.

What was measured:
Rad50-R131A = target: T1, Rad50-R131A (Saccharomyces cerevisiae, UniProt P12753 1-1312, R131A); experiment: EMSA
T1 sequence: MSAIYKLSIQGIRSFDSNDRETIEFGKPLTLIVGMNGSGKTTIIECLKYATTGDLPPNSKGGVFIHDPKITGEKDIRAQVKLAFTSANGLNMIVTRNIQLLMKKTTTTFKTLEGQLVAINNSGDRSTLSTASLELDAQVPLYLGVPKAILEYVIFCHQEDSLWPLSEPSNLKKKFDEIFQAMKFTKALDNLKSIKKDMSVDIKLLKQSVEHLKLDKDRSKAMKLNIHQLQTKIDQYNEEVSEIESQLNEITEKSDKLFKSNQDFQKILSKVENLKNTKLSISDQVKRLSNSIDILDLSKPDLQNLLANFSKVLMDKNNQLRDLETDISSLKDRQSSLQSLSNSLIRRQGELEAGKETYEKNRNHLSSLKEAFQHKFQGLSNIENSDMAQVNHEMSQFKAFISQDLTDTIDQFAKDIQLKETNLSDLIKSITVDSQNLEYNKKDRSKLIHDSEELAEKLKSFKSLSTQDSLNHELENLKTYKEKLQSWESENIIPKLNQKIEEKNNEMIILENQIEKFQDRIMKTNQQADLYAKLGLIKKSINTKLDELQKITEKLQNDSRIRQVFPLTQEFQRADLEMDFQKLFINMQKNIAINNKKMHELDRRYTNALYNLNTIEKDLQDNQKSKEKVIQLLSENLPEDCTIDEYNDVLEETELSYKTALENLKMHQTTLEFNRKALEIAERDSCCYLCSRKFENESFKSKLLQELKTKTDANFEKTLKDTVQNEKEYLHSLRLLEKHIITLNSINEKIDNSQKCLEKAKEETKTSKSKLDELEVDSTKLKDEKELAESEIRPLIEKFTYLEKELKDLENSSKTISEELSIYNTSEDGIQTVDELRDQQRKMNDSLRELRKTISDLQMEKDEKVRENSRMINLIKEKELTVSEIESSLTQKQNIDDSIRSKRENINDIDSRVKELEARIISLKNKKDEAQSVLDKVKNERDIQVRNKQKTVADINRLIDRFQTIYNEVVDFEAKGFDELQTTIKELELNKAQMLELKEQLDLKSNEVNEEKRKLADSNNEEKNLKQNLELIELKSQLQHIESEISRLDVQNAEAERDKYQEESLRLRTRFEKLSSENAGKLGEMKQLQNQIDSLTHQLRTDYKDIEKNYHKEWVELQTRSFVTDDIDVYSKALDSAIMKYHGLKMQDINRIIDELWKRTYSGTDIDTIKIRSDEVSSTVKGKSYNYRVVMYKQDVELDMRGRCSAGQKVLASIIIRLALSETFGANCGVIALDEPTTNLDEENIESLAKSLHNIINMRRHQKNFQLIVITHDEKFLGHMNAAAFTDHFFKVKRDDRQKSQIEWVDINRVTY

Rad50-R1201A = target: T2, Rad50-R1201A (Saccharomyces cerevisiae, UniProt P12753 1-1312, R1201A); experiment: EMSA
T2 sequence: T1 sequence with A131R, R1201A

B1: 83-mer dsDNA (EMSA) (dsDNA)
DNA 1: TTGATAAGAGGTCATTTTTGCGGATGGCTTAGAGCTTAATTGCTGAATCTGGTGCTGTAGCTCAACATGTTTTAAATATGCAA
DNA 2: TTGCATATTTAAAACATGTTGAGCTACAGCACCAGATTCAGCAATTAAGCTCTAAGCCATCCGCAAAAATGACCTCTTATCAA
- binding result (Rad50-R131A): binds
- binding result (Rad50-R1201A): binds
